Reference: paper PMC6736072 (Nucleic Acids Research, 2019)

Biological target: T1, His-MAD1 (recombinant, not phosphorylated by ULK1) (human, UniProt Q9Y6D9 1-718)
T1 sequence: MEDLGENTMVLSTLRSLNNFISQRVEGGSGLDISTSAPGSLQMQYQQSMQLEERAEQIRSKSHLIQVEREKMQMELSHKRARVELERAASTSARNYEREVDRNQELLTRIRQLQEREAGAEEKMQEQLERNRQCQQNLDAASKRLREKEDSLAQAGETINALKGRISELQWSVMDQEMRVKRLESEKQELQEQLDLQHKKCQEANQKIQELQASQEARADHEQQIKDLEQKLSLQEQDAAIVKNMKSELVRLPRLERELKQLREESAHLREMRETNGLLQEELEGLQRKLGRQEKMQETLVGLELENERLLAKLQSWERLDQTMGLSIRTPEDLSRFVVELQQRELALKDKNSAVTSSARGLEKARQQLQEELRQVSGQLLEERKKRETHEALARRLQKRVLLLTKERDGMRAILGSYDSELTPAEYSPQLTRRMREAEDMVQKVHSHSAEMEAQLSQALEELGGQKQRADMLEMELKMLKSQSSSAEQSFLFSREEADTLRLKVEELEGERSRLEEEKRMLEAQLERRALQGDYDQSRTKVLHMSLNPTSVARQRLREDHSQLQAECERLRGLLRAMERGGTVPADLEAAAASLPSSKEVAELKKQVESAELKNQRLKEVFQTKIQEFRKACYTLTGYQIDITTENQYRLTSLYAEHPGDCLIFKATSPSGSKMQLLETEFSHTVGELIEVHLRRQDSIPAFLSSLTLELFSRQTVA
Assay: pull-down

B1: human FLAG-BUB1-(437-509), phosphorylated in vitro (domain or fragment)
chain: SFHTTPNTSLGMVQATPSKVQPSPTVHTKEALGFIMNMFQAPTLPDISDDKDEWQSLDQNEDAFEAQFQKNVR
B1: binds.
